Laboratory results: patent publication US10500249B2, “Compositions and methods for preventing or treating diseases, conditions, or processes characterized by aberrant fibroblast proliferation and extracellular matrix deposition” (MOERAE MATRIX, INC., priority 2014, dated 2019)

Tests used:
Assay in all cases: Kinase Profiling Assay
Type in all cases: biochemical
Conditions in all cases: 100 μM
CSK (h) = target: T1, CSK (h) (Homo sapiens, UniProt P41240)
T1 construct: purchased Millipore
In short: (§1)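 Each kinase activity was measured in duplicate. Phosphorylation of a positively charged substrate with radiolabeled phosphate from ATP was captured on a negatively charged filter, counted by scintillation and expressed relative to a 100% activity control. MK2 inhibitory peptides were screened for specificity across 266 human kinases.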

CaMKIIγ (h) = target: T2, CaMKIIγ (h) (Homo sapiens, UniProt Q13555)
T2 construct: purchased Millipore
T2 sequence (Q13555 whole entry): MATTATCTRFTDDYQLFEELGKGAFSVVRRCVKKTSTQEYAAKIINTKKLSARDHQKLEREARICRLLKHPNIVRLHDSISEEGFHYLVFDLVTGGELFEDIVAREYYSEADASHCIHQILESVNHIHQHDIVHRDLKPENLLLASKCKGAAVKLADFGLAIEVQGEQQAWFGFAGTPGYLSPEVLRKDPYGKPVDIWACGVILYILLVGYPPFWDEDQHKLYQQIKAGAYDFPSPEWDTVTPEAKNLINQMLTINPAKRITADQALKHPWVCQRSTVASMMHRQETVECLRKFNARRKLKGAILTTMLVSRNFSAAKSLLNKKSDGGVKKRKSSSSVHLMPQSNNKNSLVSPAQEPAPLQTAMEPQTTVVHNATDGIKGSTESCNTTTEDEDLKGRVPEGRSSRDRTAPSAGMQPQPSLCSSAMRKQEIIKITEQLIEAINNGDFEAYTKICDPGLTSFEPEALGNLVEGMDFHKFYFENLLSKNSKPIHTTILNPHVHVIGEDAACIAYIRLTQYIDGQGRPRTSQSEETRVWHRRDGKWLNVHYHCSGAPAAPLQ
In short: as §1

Ret (h) = Ret (h) (Homo sapiens, UniProt P07949)
In short: as §1

Met(D1246N) (h) = Met(D1246N) (h) (Homo sapiens, UniProt P08581, D1228N)
In short: as §1

IR (h), activated = target: T3, IR (h), activated (Homo sapiens, UniProt P06213)
T3 construct: purchased Millipore
T3 sequence (P06213 1005-1310 limits assumed): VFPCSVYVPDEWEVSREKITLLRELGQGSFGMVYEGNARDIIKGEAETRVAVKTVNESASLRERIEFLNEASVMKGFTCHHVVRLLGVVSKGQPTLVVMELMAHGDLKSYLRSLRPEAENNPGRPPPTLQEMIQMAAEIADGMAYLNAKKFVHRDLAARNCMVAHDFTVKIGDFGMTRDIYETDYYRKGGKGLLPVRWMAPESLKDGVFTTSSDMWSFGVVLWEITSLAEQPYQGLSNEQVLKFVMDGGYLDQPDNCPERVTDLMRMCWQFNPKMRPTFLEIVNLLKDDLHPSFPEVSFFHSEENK
In short: as §1

BrSK2 (h) = target: T4, BrSK2 (h) (Homo sapiens, UniProt Q8IWQ3)
T4 sequence (Q8IWQ3 1-736): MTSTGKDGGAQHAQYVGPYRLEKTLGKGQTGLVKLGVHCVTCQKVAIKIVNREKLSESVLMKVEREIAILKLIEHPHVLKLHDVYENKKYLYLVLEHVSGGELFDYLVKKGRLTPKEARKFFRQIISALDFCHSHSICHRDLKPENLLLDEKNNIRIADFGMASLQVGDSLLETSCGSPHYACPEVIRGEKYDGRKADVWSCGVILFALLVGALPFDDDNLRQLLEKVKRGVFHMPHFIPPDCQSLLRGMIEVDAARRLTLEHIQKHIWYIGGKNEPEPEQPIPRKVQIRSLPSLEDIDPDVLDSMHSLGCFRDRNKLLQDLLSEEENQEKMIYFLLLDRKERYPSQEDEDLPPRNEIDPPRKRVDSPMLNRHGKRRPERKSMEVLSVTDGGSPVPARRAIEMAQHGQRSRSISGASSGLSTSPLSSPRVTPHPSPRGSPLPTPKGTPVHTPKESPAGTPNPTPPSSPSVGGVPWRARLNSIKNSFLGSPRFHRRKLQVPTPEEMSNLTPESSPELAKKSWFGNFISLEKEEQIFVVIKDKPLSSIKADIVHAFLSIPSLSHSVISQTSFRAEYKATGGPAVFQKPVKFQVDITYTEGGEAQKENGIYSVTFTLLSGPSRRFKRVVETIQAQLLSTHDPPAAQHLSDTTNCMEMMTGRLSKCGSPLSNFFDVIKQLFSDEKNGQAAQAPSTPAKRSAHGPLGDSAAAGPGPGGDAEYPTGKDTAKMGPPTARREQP
In short: as §1

TrkA (h) = TrkA (h) (Homo sapiens, UniProt P04629)
TrkA (h), sequence (P04629 33-796): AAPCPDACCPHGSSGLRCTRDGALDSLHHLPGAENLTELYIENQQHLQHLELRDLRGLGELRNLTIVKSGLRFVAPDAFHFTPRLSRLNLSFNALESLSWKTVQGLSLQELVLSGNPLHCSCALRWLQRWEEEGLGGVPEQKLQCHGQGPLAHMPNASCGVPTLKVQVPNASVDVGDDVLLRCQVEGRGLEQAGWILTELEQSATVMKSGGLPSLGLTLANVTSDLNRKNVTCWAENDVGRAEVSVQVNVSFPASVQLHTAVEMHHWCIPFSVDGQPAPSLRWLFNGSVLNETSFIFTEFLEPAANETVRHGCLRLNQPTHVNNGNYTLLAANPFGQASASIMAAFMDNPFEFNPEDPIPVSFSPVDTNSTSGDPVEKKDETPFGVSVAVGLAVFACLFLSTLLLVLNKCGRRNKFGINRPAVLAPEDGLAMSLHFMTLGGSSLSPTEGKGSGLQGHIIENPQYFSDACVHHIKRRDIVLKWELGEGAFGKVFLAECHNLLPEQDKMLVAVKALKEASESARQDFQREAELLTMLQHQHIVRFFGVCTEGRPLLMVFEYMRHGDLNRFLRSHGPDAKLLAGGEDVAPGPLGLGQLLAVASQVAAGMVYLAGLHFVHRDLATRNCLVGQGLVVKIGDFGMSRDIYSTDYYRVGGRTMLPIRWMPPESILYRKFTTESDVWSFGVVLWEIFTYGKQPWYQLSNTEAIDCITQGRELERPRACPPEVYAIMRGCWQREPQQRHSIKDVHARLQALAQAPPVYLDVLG
In short: as §1

PKCζ (h) = target: T5, PKCζ (h) (Homo sapiens, UniProt Q05513)
T5 sequence (Q05513 1-592): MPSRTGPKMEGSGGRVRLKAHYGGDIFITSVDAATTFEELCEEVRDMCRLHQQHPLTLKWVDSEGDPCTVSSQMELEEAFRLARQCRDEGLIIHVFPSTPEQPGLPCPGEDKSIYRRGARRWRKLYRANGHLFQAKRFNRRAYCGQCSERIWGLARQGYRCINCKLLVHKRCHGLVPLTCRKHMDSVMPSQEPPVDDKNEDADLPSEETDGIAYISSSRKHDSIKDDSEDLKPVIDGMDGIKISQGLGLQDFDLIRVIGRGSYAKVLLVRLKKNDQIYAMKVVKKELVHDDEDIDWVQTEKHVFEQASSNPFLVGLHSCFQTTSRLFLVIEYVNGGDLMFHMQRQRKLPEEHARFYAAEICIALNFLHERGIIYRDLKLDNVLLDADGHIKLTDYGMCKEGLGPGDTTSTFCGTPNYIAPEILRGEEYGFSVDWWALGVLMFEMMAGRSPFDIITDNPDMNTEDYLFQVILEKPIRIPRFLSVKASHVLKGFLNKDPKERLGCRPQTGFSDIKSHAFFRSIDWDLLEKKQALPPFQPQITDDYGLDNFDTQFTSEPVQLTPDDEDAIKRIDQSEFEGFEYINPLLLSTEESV
In short: as §1

DAPK1 (h) = target: T6, DAPK1 (h) (Homo sapiens, UniProt P53355)
T6 construct: purchased Millipore
In short: as §1

Arg (h) = Arg (h) (Homo sapiens, UniProt P42684)
In short: as §1

Lyn (h) = Lyn (h) (Homo sapiens, UniProt P07948)
Lyn (h), sequence (P07948 whole entry): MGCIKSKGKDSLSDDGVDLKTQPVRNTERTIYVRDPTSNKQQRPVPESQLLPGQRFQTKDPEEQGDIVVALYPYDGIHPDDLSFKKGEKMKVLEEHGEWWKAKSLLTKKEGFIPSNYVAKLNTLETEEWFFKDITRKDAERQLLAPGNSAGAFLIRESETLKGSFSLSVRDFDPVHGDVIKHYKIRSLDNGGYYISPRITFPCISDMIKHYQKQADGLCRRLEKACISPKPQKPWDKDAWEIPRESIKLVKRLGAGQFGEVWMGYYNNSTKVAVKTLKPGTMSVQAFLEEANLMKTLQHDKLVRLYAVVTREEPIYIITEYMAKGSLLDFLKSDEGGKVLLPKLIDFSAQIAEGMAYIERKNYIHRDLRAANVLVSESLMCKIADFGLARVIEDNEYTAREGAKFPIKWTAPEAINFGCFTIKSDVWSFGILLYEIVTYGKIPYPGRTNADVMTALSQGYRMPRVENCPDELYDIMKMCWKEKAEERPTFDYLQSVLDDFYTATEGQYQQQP
In short: as §1

FAK (h) = FAK (h) (Homo sapiens, UniProt Q05397)
FAK (h), sequence (Q05397 whole entry): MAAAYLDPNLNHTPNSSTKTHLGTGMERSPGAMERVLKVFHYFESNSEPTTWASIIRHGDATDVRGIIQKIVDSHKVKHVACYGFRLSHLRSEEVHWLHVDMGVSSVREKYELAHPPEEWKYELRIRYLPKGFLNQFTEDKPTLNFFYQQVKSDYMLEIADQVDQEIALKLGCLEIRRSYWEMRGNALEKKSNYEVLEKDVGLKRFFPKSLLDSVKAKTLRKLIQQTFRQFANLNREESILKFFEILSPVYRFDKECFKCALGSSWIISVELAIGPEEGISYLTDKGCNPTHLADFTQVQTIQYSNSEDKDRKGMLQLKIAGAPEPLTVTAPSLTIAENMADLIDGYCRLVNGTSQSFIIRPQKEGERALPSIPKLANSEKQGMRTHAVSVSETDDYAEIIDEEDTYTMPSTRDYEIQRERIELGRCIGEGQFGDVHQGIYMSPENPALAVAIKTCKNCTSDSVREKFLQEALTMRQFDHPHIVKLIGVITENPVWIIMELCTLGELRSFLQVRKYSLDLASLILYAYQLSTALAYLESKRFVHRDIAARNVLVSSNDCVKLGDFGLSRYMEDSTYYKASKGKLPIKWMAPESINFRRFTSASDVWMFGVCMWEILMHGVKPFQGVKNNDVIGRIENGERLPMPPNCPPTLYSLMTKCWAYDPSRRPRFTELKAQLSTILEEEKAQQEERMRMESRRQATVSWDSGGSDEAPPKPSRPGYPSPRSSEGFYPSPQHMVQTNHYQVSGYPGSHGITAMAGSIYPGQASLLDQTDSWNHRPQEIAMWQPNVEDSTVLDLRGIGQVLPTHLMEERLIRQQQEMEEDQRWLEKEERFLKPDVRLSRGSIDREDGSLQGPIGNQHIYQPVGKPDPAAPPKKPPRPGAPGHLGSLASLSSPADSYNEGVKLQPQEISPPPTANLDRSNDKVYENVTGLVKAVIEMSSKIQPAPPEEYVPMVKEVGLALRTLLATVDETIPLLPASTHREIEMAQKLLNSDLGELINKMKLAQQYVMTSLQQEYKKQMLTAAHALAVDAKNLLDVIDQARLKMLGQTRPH
In short: as §1

ACK1 (h) = ACK1 (h) (Homo sapiens, UniProt Q07912)
ACK1 (h), sequence (Q07912 whole entry): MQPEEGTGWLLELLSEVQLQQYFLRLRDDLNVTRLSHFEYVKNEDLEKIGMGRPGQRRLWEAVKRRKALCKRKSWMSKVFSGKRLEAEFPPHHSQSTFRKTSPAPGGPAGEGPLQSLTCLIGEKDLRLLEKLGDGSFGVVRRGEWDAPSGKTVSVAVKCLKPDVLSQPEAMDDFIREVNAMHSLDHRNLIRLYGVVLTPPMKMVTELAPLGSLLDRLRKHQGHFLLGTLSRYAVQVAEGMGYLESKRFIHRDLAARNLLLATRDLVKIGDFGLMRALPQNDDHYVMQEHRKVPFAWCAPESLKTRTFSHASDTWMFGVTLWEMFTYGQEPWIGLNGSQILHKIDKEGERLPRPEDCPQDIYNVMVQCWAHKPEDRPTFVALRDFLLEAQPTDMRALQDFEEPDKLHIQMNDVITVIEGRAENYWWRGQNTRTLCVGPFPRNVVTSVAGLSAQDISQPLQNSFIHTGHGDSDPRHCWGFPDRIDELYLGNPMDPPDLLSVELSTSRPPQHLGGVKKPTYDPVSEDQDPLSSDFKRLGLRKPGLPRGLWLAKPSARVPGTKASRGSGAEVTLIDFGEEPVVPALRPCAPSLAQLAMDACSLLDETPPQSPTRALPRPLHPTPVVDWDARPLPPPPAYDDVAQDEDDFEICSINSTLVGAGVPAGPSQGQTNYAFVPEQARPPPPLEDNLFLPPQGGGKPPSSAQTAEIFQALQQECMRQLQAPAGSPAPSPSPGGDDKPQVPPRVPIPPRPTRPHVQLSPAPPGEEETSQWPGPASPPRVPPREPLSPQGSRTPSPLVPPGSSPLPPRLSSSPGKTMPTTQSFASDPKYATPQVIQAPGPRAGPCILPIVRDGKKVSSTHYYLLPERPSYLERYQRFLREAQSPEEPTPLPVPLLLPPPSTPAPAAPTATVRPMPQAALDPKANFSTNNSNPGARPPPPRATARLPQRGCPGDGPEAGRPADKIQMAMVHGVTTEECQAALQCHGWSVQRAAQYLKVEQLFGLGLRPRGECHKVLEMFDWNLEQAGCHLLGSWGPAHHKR
In short: as §1

T1 sequence (P41240 whole entry): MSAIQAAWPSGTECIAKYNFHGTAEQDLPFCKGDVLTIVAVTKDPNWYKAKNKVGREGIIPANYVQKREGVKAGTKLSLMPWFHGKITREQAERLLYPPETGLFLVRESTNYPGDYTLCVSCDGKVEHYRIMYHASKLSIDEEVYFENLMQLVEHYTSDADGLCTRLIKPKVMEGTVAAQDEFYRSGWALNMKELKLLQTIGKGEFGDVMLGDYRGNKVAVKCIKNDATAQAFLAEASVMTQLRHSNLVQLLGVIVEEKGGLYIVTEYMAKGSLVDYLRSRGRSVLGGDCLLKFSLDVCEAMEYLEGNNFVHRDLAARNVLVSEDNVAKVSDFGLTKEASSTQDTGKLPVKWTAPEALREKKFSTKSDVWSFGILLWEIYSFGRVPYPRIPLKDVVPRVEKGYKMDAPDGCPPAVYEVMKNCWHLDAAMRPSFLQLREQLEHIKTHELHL

Row | Sequence | % activity (CSK (h)) [%] | % activity (CaMKIIγ (h)) [%] | % activity (Ret (h)) [%] | % activity (Met(D1246N) (h)) [%] | % activity (IR (h), activated) [%] | % activity (BrSK2 (h)) [%] | % activity (TrkA (h)) [%] | % activity (PKCζ (h)) [%] | % activity (DAPK1 (h)) [%] | % activity (Arg (h)) [%] | % activity (Lyn (h)) [%] | % activity (FAK (h)) [%] | % activity (ACK1 (h)) [%]
1 | FAKLAARLYRKALARQLGVAA [MMI-0300] | 49 | 5 | 140 | 82 | 79 | 83 | 25 | 81 | 46 | 72 | 69 | – | –
2 | HRRIKAWLKKIKALARQLGVAA (Mammalian) [MMI-0500] | 2 | 3 | 174 | 90 | 90 | 84 | 24 | 7 | 0 | 22 | 31 | 94 | 64
3 | KAFAKLAARLYRKALARQLGVAA [MMI-0400] | 16 | 3 | 145 | 31 | 59 | 86 | 17 | 75 | 36 | 84 | 3 | 96 | 95
4 | YARAAARQARAKALNRQLGVA (Mammalian) [MMI-0200] | 33 | 94 | 96 | 149 | – | – | – | 98 | – | 82 | 98 | 110 | 97
